Reference: paper PMC7181697, “Molecular basis for assembly of the shieldin complex and its implications for NHEJ” (Nature Communications, 2020)
Values belong to the binder of their own block, whether it stands above or below them.

Legend:
Settings in all cases: both partners purified
[1] = molecular target: T1, REV7^E35A-SHLD3(1–82)-REV7^K129A (human, UniProt Q9UI95 1-211; Q6ZNX1 1-82; Q9UI95 1-211, E35A | K129A); test: ITC; ITC200, 25 °C, 20 mM Tris pH 8.0, 150 mM NaCl, 1% glycerol, 1 mM TCEP; one set of sites model
T1 construct: REV7 (MAD2B, MAD2L2), human, full length; the C-REV7 of the dimer; SHLD3, human, residues 1-82; cloned without His-tag; the O-REV7 of the dimer; also called E35A-1–82 + K129A; reconstituted conformational dimer; source: reconstituted from purified REV7^E35A-SHLD3(1–82) and purified REV7^K129A (both E. coli BL21(DE3)); copies: + +
T1 sequence (Q9UI95 whole entry E35A, chain 1 of 2, the tested form may be a part): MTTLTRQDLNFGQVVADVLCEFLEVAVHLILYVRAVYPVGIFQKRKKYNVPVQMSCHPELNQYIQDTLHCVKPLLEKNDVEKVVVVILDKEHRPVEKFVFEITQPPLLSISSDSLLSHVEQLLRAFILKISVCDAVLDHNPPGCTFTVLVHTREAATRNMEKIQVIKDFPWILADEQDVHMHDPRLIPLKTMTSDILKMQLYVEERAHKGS
T1 sequence (Q9UI95 whole entry K129A, chain 3 of 2, the tested form may be a part): as the sequence (Q9UI95 whole entry E35A, chain 1 of 2, the tested form may be a part) above, with A35E, K129A counted along it

REV7^K129A = molecular target: T2, REV7^K129A (human, UniProt Q9UI95 1-211, K129A); test: as above
T2 construct: REV7 (MAD2B, MAD2L2), human, full length; also called O-REV7 (as used in the ITC and SEC experiments); source: E. coli BL21(DE3), purified (Ni-IDA, SEC); alone or co-expressed with SHLD3(1-82)
T2 sequence (Q9UI95 whole entry K129A): as the sequence (Q9UI95 whole entry E35A, chain 1 of 2, the tested form may be a part) above, with A35E, K129A counted along it

MBP-REV7^K129A = molecular target: T3, MBP-REV7^K129A (human, UniProt Q9UI95 1-211, K129A); test: SEC; Superdex 200 Increase 10/300 GL, 20 mM Tris/HCl pH 8.0, 150 mM NaCl, 1% glycerol, 1 mM TCEP; proteins mixed and incubated 10 min on ice; 0.5 ml fractions on SDS-PAGE, Coomassie
T3 construct: REV7 (MAD2B, MAD2L2), human; The cloning of this construct is not described in the methods; also called O-REV7; source: E. coli BL21(DE3), purified (Ni-IDA, SEC)
T3 sequence (Q9UI95 whole entry K129A): as the sequence (Q9UI95 whole entry E35A, chain 1 of 2, the tested form may be a part) above, with A35E, K129A counted along it

[2] = molecular target: T4, REV7 (full length, wild type) (human, UniProt Q9UI95 1-211); test: ITC; ITC200, 25 °C, 20 mM Tris pH 8.0, 150 mM NaCl, 1% glycerol, 1 mM TCEP; one set of sites model
T4 construct: REV7 (MAD2B, MAD2L2), human, full length; Two copies (closed C-REV7 and open O-REV7) stand in the crystal structure 6KTO; also called REV7^WT; MAD2B; source: E. coli BL21(DE3), purified (Ni-IDA, SEC); alone or co-expressed with SHLD3 and SHLD2 truncations
T4 sequence (Q9UI95 whole entry, the tested form may be a part): as the sequence (Q9UI95 whole entry E35A, chain 1 of 2, the tested form may be a part) above, with A35E counted along it

REV7^Y63A = molecular target: T5, REV7^Y63A (human, UniProt Q9UI95 1-211, Y63A); test: as above
T5 construct: REV7 (MAD2B, MAD2L2), human, full length; source: E. coli BL21(DE3), purified (Ni-IDA, SEC); alone or co-expressed with SHLD3(1-82)
T5 sequence (Q9UI95 whole entry Y63A): as the sequence (Q9UI95 whole entry E35A, chain 1 of 2, the tested form may be a part) above, with A35E, Y63A counted along it

REV7^W171A = molecular target: T6, REV7^W171A (human, UniProt Q9UI95 1-211, W171A); test: as above
T6 construct: REV7 (MAD2B, MAD2L2), human, full length; source: E. coli BL21(DE3), purified (Ni-IDA, SEC); alone or co-expressed with SHLD3(1-82)
T6 sequence (Q9UI95 whole entry W171A): as the sequence (Q9UI95 whole entry E35A, chain 1 of 2, the tested form may be a part) above, with A35E, W171A counted along it

[3] = molecular target: T7, REV7^K44A-SHLD3(1–82)^F38A (human, UniProt Q9UI95 1-211; Q6ZNX1 1-82, K44A | F38A); test: as above
T7 construct: REV7 (MAD2B, MAD2L2), human, full length; SHLD3, human, residues 1-82; cloned without His-tag; source: E. coli BL21(DE3), co-expressed (pETduet), purified (Ni-IDA, SEC)
T7 sequence (Q9UI95 whole entry K44A, the tested form may be a part, one chain of several): as the sequence (Q9UI95 whole entry E35A, chain 1 of 2, the tested form may be a part) above, with A35E, K44A counted along it

REV7^K44A-SHLD3(45–82) = molecular target: T8, REV7^K44A-SHLD3(45–82) (human, UniProt Q9UI95 1-211; Q6ZNX1 45-82, K44A); test: as above
T8 construct: REV7 (MAD2B, MAD2L2), human, full length; SHLD3, human, residues 45-82; cloned without His-tag; source: E. coli BL21(DE3), co-expressed (pETduet), purified (Ni-IDA, SEC)
T8 sequence (Q9UI95 whole entry K44A, the tested form may be a part, one chain of several): as the sequence (Q9UI95 whole entry E35A, chain 1 of 2, the tested form may be a part) above, with A35E, K44A counted along it

[4] = molecular target: T9, REV7^K44A-SHLD3(1–82)^FIPWFP/AIAAAA (human, UniProt Q9UI95 1-211; Q6ZNX1 1-82, K44A | FIPWFP/AIAAAA); test: as above
T9 construct: REV7 (MAD2B, MAD2L2), human, full length; SHLD3, human, residues 1-82; the FXPWFP motif stands at 38-43; cloned without His-tag; also called REV7^K44A-SHLD3(1–82)^5A; source: E. coli BL21(DE3), co-expressed (pETduet), purified (Ni-IDA, SEC)
T9 sequence (Q9UI95 whole entry K44A, the tested form may be a part, one chain of several): as the sequence (Q9UI95 whole entry E35A, chain 1 of 2, the tested form may be a part) above, with A35E, K44A counted along it

[5] = molecular target: T1, REV7^E35A-SHLD3(1–82)-REV7^K129A; test: SEC; Superdex 200 Increase 10/300 GL, 20 mM Tris/HCl pH 8.0, 150 mM NaCl, 1% glycerol, 1 mM TCEP; proteins mixed and incubated 10 min on ice; 0.5 ml fractions on SDS-PAGE, Coomassie
[6] = molecular target: T10, REV7^K44A-SHLD3(1–82)-REV7^K129A (human, UniProt Q9UI95 1-211; Q6ZNX1 1-82; Q9UI95 1-211, K44A | K129A); test: as above
T10 construct: REV7 (MAD2B, MAD2L2), human, full length; the C-REV7 of the dimer; SHLD3, human, residues 1-82; cloned without His-tag; the O-REV7 of the dimer; also called K44A-1–82 + K129A; reconstituted conformational dimer; source: reconstituted from purified REV7^K44A-SHLD3(1–82) and purified REV7^K129A (both E. coli BL21(DE3)); copies: + +
T10 sequence (Q9UI95 whole entry K44A, chain 1 of 2, the tested form may be a part): as the sequence (Q9UI95 whole entry E35A, chain 1 of 2, the tested form may be a part) above, with A35E, K44A counted along it
T10 sequence (Q9UI95 whole entry K129A, chain 3 of 2, the tested form may be a part): as the sequence (Q9UI95 whole entry E35A, chain 1 of 2, the tested form may be a part) above, with A35E, K129A counted along it

- Kd [1]: 46 nM
- binding result (REV7^K129A): binds
B1: REV3(1847-1906) (domain or fragment, human, UniProt O60673 1847-1906, looked up)
chain: MLTPTPDSSPRSTSSPSQSKNGSFTPRTANILKPLMSPPSREEIMATLLDHDLSETIYQE
notes: amplified from cDNA of Jurkat cells; The methods name two vectors for REV3 truncations (His6-MBP and C-terminal His6); also called RBM1 of REV3; source: E. coli BL21(DE3), purified (Ni-IDA, SEC)

- binding result (MBP-REV7^K129A): binds
B2: MBP-REV3(1847-1906) (domain or fragment, human, UniProt O60673 1847-1906, looked up)
chain: B1 chain
notes: Modified pET28a(+) with His6-MBP tag; source: E. coli BL21(DE3), purified (Ni-IDA, SEC)

- Kd [2]: ~130 nM
- Kd (REV7^Y63A): ~200 nM
- Kd (REV7^W171A): ~200 nM
B3: SHLD3(1–82) with C-terminal His6-tag (domain or fragment, human, UniProt Q6ZNX1 1-82, looked up)
chain: MTTEVILHYRPCESDPTQLPKIAEKAIQDFPTRPLSRFIPWFPYDGSKLPLRPKRSPPVISEEAAEDVKQYLTISEHDAKSH
notes: SHLD3, human, residues 1-82; SHLD3(1-82) expressed alone for biochemical studies (pET28a(+)); source: E. coli BL21(DE3), purified (Ni-IDA, SEC)

- Kd [3]: 6500 nM
- Kd (REV7^K44A-SHLD3(45–82)): 1400 nM
- Kd [4]: 1100 nM
B4: cREV1 CTD (chimeric REV1 CTD: POL κ RIR fused to the N-terminus of REV1 CTD) (other, UniProt Q9UBT6 562-577, looked up)
chain: SHKKSFFDKKRSERKWGLSSLQSDPAGCVRPPAPNLAGAVEFNDVKTLLREWITTISDPMEEDILQVVKYCTDLIEEKDLEKLDLVIKYMKRLMQQSVESVWNMAFDFILDNVQVVLQQTYGSTLKVT
notes: source: E. coli BL21(DE3), purified (Ni-IDA, SEC)

- binding result [5]: binds
- binding result [6]: binds
B5: MBP-SHLD2(1–60) (domain or fragment, human, UniProt Q86V20 1-60, looked up)
chain: MSGGSQVHIFWGAPIAPLKITVSEDTASLMSVADPWKKIQLLYSQHSLYLKDEKQHKNLE
notes: SHLD2, human, residues 1-60; Modified pET28a(+) with His6-MBP tag; also called MBP-1–60; source: E. coli BL21(DE3), purified (Ni-IDA, SEC); not shown: MBP, N-terminal, kept
